The test system of data set [1] is HeLa Kyoto. The data set can be described thus: solubility change mitosis vs G1/S (difference of NP-40 vs SDS log2 ratios) (log2 ratio difference); higher = more soluble in mitosis.
Data set [2] deals with HeLa Kyoto. The data set can be described thus: solubility in G1/S (NP-40 vs SDS abundance) (log2 ratio); higher = more soluble. The note with it: cell cycle stage: G1/S.
Data set [3] concerns HeLa Kyoto. The data set can be described thus: melting temperature (median over replicates), in situ; higher = more thermally stable.
Data set [4] concerns HeLa Kyoto. The data set can be described thus: thermal stability score vs G1/S (z-score of summed log2 fold changes over temperatures); higher = more thermally stable than in G1/S.
[5] abbreviates: cell cycle stage: early G1 (4.5 h after nocodazole release).
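Wherever melting temperature (median over replicates), in situ is given: HeLa Kyoto cells synchronized by double thymidine or nocodazole block, proteins quantified by TMT10plex mass spectrometry, three independent biological replicates.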
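Wherever solubility change mitosis vs G1/S (difference of NP-40 vs SDS log2 ratios) is given: synchronized HeLa Kyoto cells (double thymidine block for G1/S, nocodazole release for mitosis), protein amounts in NP-40 versus SDS lysates quantified by mass spectrometry, three biological replicates.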
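Wherever solubility in G1/S (NP-40 vs SDS abundance) is given: HeLa Kyoto cells arrested at G1/S by double thymidine block, proteins quantified by TMT10plex mass spectrometry in mild NP-40 versus SDS extracts, three biological replicates.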
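Wherever thermal stability score vs G1/S (z-score of summed log2 fold changes over temperatures) is given: synchronized HeLa Kyoto cells, proteins quantified by TMT10plex mass spectrometry, three biological replicates, mitosis taken 0.5 h after nocodazole release, G1/S directly after double thymidine block.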

Regarding “MKYILVTGGVISGIGKGIIASSIGTILKSCGLRVTAIKIDPYINIDAGTFSPYEHGEVFVLNDGGEVDLDLGNYERFLDINLYKDNNITTGKIYQHVINKERRGDYLGKTVQVVPHITDAVQEWVMNQAKVPVDGNKEEPQICVIELGGTIGDIEGMPFVEAFRQFQFKAKRENFCNIHVSLVPQLSATGEQKTKPTQNSVRALRGLGLSPDLIVCRSSTPIEMAVKEKISMFCHVNPEQVICIHDVSSTYRVPVLLEEQSIVKYFKERLHLPIGDSASNLLFKWRNMADRYERLQKICSIALVGKYTKLRDCYASVFKALEHSALAINHKLNLMYIDSIDLEKITETEDPVKFHEAWQKLCKADGILVPGGFGIRGTLGKLQAISWARTKKIPFLGVCLGMQLAVIEFARNCLNLKDADSTEFRPNAPVPLVIDMPEHNPGNLGGTMRLGIRRTVFKTENSILRKLYGDVPFIEERHRHRFEVNPNLIKQFEQNDLSFVGQDVDGDRMEIIELANHPYFVGVQFHPEFSSRPMKPSPPYLGLLLAATGNLNAYLQQGCKLSSSDRYSDASDDSFSEPRIAELEIS [CTPS2]”, the “solubility change mitosis (log2)” value in the data set with HeLa Kyoto [1] was -0.0719. Besides, the “solubility in G1/S (log2)” value in the data set on HeLa Kyoto [2] is 0.0287. Also, the melting temperature was found to be 57.1 °C in the data set on HeLa Kyoto [3] (cell cycle stage: G1/S) and 57.2 °C in the data set on HeLa Kyoto [3] (cell cycle stage: mitosis). Besides, the thermal stability score was -2.15 in the data set on HeLa Kyoto [4] (setting [5]) and -1.98 in the data set with HeLa Kyoto [4] (cell cycle stage: mitosis).

In the case of “MTDGDYDYLIKLLALGDSGVGKTTFLYRYTDNKFNPKFITTVGIDFREKRVVYNAQGPNGSSGKAFKVHLQLWDTAGQERFRSLTTAFFRDAMGFLLMFDLTSQQSFLNVRNWMSQLQANAYCENPDIVLIGNKADLPDQREVNERQARELADKYGIPYFETSAATGQNVEKAVETLLDLIMKRMEQCVEKTQIPDTVNGGNSGNLDGEKPPEKKCIC [RAB27B]”, in the data set on HeLa Kyoto [1], the “solubility change mitosis (log2)” value is -0.0223. Further, the “solubility in G1/S (log2)” value in the data set with HeLa Kyoto [2] worked out at 0.00344. The melting temperature with HeLa Kyoto [3] (cell cycle stage: G1/S) turned out to be 55.7 °C; in the data set on HeLa Kyoto [3] (cell cycle stage: mitosis) it was 59.9 °C. Also, the values for the thermal stability score in the data set on HeLa Kyoto [4] (setting [5]) and with HeLa Kyoto [4] (cell cycle stage: mitosis) were -1.38 and -2.39, respectively.

“MARYEEVSVSGFEEFHRAVEQHNGKTIFAYFTGSKDAGGKSWCPDCVQAEPVVREGLKHISEGCVFIYCQVGEKPYWKDPNNDFRKNLKVTAVPTLLKYGTPQKLVESECLQANLVEMLFSED [TXNDC17]”: the “solubility change mitosis (log2)” value with HeLa Kyoto [1] is -0.128. Further, the “solubility in G1/S (log2)” value with HeLa Kyoto [2] came to 0.304. In addition, the melting temperature in the data set on HeLa Kyoto [3] (cell cycle stage: G1/S) came out at 50.8 °C; with HeLa Kyoto [3] (cell cycle stage: mitosis) it was 51.6 °C. Moreover, the thermal stability score with HeLa Kyoto [4] (setting [5]) was found to be 4.94; in the data set with HeLa Kyoto [4] (cell cycle stage: mitosis), 2.6.

Regarding “MPAVDKLLLEEALQDSPQTRSLLSVFEEDAGTLTDYTNQLLQAMQRVYGAQNEMCLATQQLSKQLLAYEKQNFALGKGDEEVISTLHYFSKVVDELNLLHTELAKQLADTMVLPIIQFREKDLTEVSTLKDLFGLASNEHDLSMAKYSRLPKKKENEKVKTEVGKEVAAARRKQHLSSLQYYCALNALQYRKQMAMMEPMIGFAHGQINFFKKGAEMFSKRMDSFLSSVADMVQSIQVELEAEAEKMRVSQQELLSVDESVYTPDSDVAAPQINRNLIQKAGYLNLRNKTGLVTTTWERLYFFTQGGNLMCQPRGAVAGGLIQDLDNCSVMAVDCEDRRYCFQITTPNGKSGIILQAESRKENEEWICAINNISRQIYLTDNPEAVAIKLNQTALQAVTPITSFGKKQESSCPSQNLKNSEMENENDKIVPKATASLPEAEELIAPGTPIQFDIVLPATEFLDQNRGSRRTNPFGETEDESFPEAEDSLLQQMFIVRFLGSMAVKTDSTTEVIYEAMRQVLAARAIHNIFRMTESHLMVTSQSLRLIDPQTQVSRANFELTSVTQFAAHQENKRLVGFVIRVPESTGEESLSTYIFESNSEGEKICYAINLGKEIIEVQKDPEALAQLMLSIPLTNDGKYVLLNDQPDDDDGNPNEHRGAESEA [APPL2]”, the “solubility change mitosis (log2)” value in the data set with HeLa Kyoto [1] was -0.0416. In addition, the “solubility in G1/S (log2)” value in the data set with HeLa Kyoto [2] is 0.193. For the same substance, the melting temperature in the data set on HeLa Kyoto [3] (cell cycle stage: G1/S) is 49.1 °C; in the data set with HeLa Kyoto [3] (cell cycle stage: mitosis), 49.5 °C. Further, the figures for the thermal stability score in the data set with HeLa Kyoto [4] (setting [5]) and in the data set on HeLa Kyoto [4] (cell cycle stage: mitosis) were -0.102 and 0.993, respectively.

Regarding “MALLSEGLDEVPAACLSPCGPPNPTELFSESRRLALEELVAGGPEAFAAFLRRERLARFLNPDEVHAILRAAERPGEEGAAAAAAAEDSFGSSHDCSSGTYFPEQSDLEPPLLELGWPAFYQGAYRGATRVETHFQPRGAGEGGPYGCKDALRQQLRSAREVIAVVMDVFTDIDIFRDLQEICRKQGVAVYILLDQALLSQFLDMCMDLKVHPEQEKLMTVRTITGNIYYARSGTKIIGKVHEKFTLIDGIRVATGSYSFTWTDGKLNSSNLVILSGQVVEHFDLEFRILYAQSKPISPKLLSHFQSSNKFDHLTNRKPQSKELTLGNLLRMRLARLSSTPRKADLDPEMPAEGKAERKPHDCESSTVSEEDYFSSHRDELQSRKAIDAATQTEPGEEMPGLSVSEVGTQTSITTACAGTQTAVITRIASSQTTIWSRSTTTQTDMDENILFPRGTQSTEGSPVSKMSVSRSSSLKSSSSVSSQGSVASSTGSPASIRTTDFHNPGYPKYLGTPHLELYLSDSLRNLNKERQFHFAGIRSRLNHMLAMLSRRTLFTENHLGLHSGNFSRVNLLAVRDVALYPSYQ [FAM83D]”, the “solubility change mitosis (log2)” value in the data set on HeLa Kyoto [1] is -0.133. The “solubility in G1/S (log2)” value with HeLa Kyoto [2] is -0.213. Moreover, the melting temperature with HeLa Kyoto [3] (cell cycle stage: G1/S) is 49.8 °C; in the data set with HeLa Kyoto [3] (cell cycle stage: mitosis) it was 49.4 °C. In addition, the figures for the thermal stability score in the data set on HeLa Kyoto [4] (setting [5]) and in the data set on HeLa Kyoto [4] (cell cycle stage: mitosis) were 0.13 and -0.391, respectively.

On to ARFGEF2, for which the “solubility change mitosis (log2)” value in the data set on HeLa Kyoto [1] was -0.155. Further, the “solubility in G1/S (log2)” value with HeLa Kyoto [2] was -0.186. Moreover, the melting temperature turned out to be 50.7 °C in the data set on HeLa Kyoto [3] (cell cycle stage: G1/S) and 50.5 °C in the data set on HeLa Kyoto [3] (cell cycle stage: mitosis). Further, the figures for the thermal stability score with HeLa Kyoto [4] (setting [5]) and with HeLa Kyoto [4] (cell cycle stage: mitosis) were 0.0515 and -0.274, respectively.
